Target: eGFP-Rab35CA (Q67L), GTP-locked, constitutively active (mouse, UniProt Q6PHN9 1-201, Q67L)
Experiment: co-IP; eGFP-Rab35CA or -DN captured on eGFP-Trap_MA beads from lysates of HEK293T cells co-expressing MTMR13 constructs, 24 h after transfection; 90 min at 4 °C; immunoblot
Details: partners not purified

Chain of eGFP-Rab35CA (Q67L), GTP-locked, constitutively active (Q6PHN9 whole entry Q67L): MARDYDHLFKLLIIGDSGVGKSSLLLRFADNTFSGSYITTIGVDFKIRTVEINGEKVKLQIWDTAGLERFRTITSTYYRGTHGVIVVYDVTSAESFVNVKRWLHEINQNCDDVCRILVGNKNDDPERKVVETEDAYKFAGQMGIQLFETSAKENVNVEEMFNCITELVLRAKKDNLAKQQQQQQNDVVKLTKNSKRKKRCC

B1: N-terminally FLAG-tagged MTMR13 (natural protein)
chain: not shown
notes: MTMR13 (SBF2), full length, printed as aa1-1848, 5547 bp; other constructs end at aa1849; Gift plasmid in pcDNA3.1; the printed length of 1849 codons fits the human protein; also called FLAG-MTMR13; source: HEK293T, transfected, in lysate; not shown: FLAG, N-terminal, kept
- ratio of FLAG-MTMR13 bound to CA over DN: 11.6

Reference: article PMC7275063, “Rab35-regulated lipid turnover by myotubularins represses mTORC1 activity and controls myelin growth” (Nature Communications, 2020)
